Laboratory results taken from paper PMC12149299.
Like-named read-outs stand apart in the source and are kept apart here.

Molecular target: HIV-1 gp120 protein from the BaL.01 strain (HIV-1)
Assay: BLI

Binder	Kd [nM]	Kd (biotin (EZ-Link NHS-LC-Biotin) in the competition ELISA only | biotin (EZ-Link NHS-LC-Biotin) in the competition ELISA only) [nM]
VRC01 (protein) chain 1: QVQLVQSGGQMKKPGESMRISCRASGYEFIDCTLNWIRLAPGKRPEWMGWLKPRGGAVNYARPLQGRVTMTRDVYSDTAFLELRSLTVDDTAVYFCTRGKNCDYNWDFEHWGRGTPVIVSS chain 2: EIVLTQSPGTLSLSPGETAIISCRTSQYGSLAWYQQRPGQAPRLVIYSGSTRAAGIPDRFSGSRWGPDYNLTISNLESGDFGVYYCQQYEFFGQGTKVQVD	25.1	
FD22 (protein) chain 1: QVQLSQSGGGAVQPGKSLTLSCRAYGFHLFSYVVVWVRQTPQNGLEWVAGAASGGWPQEFMNSVRGRFSISRDDYTVSLQMNALRVDDSGLYFCAQERGLHRLDGAVKFGRWFRAWGQGSQVVVTS chain 2: QSALTQPASVSGSPGQSITLSCTGADNSVSWYQVVPGRAPKLLIFEVNVRPSEVSDRFSGSKSGDTASLTISRLQIEDESDYYCVTRRGDVTYLFGSGTRVSVL		8.88
